Results published in ChEMBL document CHEMBL1152703, “Design and synthesis of a beta-lactamase activated 5-fluorouracil prodrug” (Bioorg Med Chem Lett, 2009).

Substrate: O=C(Cc1cccs1)N[C@@H]1C(=O)N2C(C(=O)O)=C(Cn3c(=O)[nH]cc(F)c3=O)CS[C@H]12
Experiment: Activity at Enterobacter cloacae P99 beta-lactamase by Michaelis-Menten equation

B1: Beta-lactamase (Enterobacter cloacae), P05364 (protein)
chain: MMRKSLCCALLLGISCSALATPVSEKQLAEVVANTITPLMKAQSVPGMAVAVIYQGKPHYYTFGKADIAANKPVTPQTLFELGSISKTFTGVLGGDAIARGEISLDDAVTRYWPQLTGKQWQGIRMLDLATYTAGGLPLQVPDEVTDNASLLRFYQNWQPQWKPGTTRLYANASIGLFGALAVKPSGMPYEQAMTTRVLKPLKLDHTWINVPKAEEAHYAWGYRDGKAVRVSPGMLDAQAYGVKTNVQDMANWVMANMAPENVADASLKQGIALAQSRYWRIGSMYQGLGWEMLNWPVEANTVVEGSDSKVALAPLPVAEVNPPAPPVKASWVHKTGSTGGFGSYVAFIPEKQIGIVMLANTSYPNPARVEAAYHILEALQ
Km: 95.4 µM
Vmax: 3.21 µmol/min/mg
